Publication PMC8391104 (2021)
Changes are numbered by the printed parent chain. Where no end group is shown, it is not given here. [ ]: non-standard residue; d: D form. pT = C[C@@H](OP(=O)(O)O)[C@H](N)C(=O)O; pS = N[C@@H](COP(=O)(O)O)C(=O)O

Legend:
Experiment in all cases: ITC
Mad1^CTD R650A = target: T1, Mad1^CTD R650A (human, UniProt Q9Y6D9 597-718, R650A)
T1 sequence: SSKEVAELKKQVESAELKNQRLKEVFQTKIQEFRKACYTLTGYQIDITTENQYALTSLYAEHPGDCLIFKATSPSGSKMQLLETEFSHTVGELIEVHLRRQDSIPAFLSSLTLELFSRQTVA

Mad1CTD K614A = target: T2, Mad1CTD K614A (Homo sapiens)
T2 chain: T1 sequence with K18A, A54R

Mad1^CTD I643A = target: T3, Mad1^CTD I643A (human, UniProt Q9Y6D9 597-718, I643A)
T3 sequence: T1 sequence with I47A, A54R

Mad1^CTD Q627A = target: T4, Mad1^CTD Q627A (human, UniProt Q9Y6D9 597-718, Q627A)
T4 sequence: T1 sequence with Q31A, A54R

Kd (Mad1^CTD R650A): 1100 nM
Kd (Mad1CTD K614A): 2400 nM
Kd (Mad1^CTD I643A): 1400 nM
Kd (Mad1^CTD Q627A): 2400 nM
B1: doubly phosphorylated Bub1^CD1 peptide (pSer459-pThr461) (peptide)
peptide: KVQP[pS]P[pT]VHTKEALGFIMNMFQAPTS
